B1: p105498-969(ΔDD): recombinant p105 498-969 protein which lacks the p105 death domain (protein)
chain: QDNLFLEKAMQLAKRHANALFDYAVTGDVKMLLAVQRHLTAVQDENGDSVLHLAIIHLHSQLVRDLLEVTSGLISDDIINMRNDLYQTPLHLAVITKQEDVVEDLLRAGADLSLLDRLGNSVLHLAAKEGHDKVLSILLKHKKAALLLDHPNGDGLNAIHLAMMSNSLPCLLLLVAAGADVNAQEQKSGRTALHLAVEHDNISLAGCLLLEGDAHVDSTTYDGTTPLHIAAGRGSTRLAALLKAAGADPLVENFEPLYDLDDSWENAGEDEGVVPGTTPLDMATSWQVFDILNGKPYEPEFTSDDSPVKTTSQAHSLPLSPASTRQQIDELRDSDSVCDSGVETSFRKLSFTESLTSGASLLTLNKMPHDYGQEGPLEGKI
B2: p105541-802: recombinant p105 protein, residues 541-802 (protein)
chain: DENGDSVLHLAIIHLHSQLVRDLLEVTSGLISDDIINMRNDLYQTPLHLAVITKQEDVVEDLLRAGADLSLLDRLGNSVLHLAAKEGHDKVLSILLKHKKAALLLDHPNGDGLNAIHLAMMSNSLPCLLLLVAAGADVNAQEQKSGRTALHLAVEHDNISLAGCLLLEGDAHVDSTTYDGTTPLHIAAGRGSTRLAALLKAAGADPLVENFEPLYDLDDSWENAGEDEGVVPGTTPLDMATSWQVFDILNGKPYEPEFTSDD

Key:
[1] = target: T1, Myc-TPL-2 MEK kinase activity (Rattus norvegicus, UniProt Q63562); test: In vitro MEK kinase assay with GST-MEK1(K207A) substrate, Myc-TPL-2; assay type: biochemical; details: equivalent molar concentrations to p105498-969
T1 construct: made in house; host or cells: HEK 293 cells, transient transfection, anti-Myc immunoprecipitation
Description: Myc-TPL-2 or Myc-TPL-2ΔC were isolated by immunoprecipitation from lysates of transiently transfected 293 cells, as described above. immunoprecipitates were washed four times in Buffer A, followed by two washes in kinase buffer (50 mM Tris-pH7.5, 150 mM NaCl, 5 mM β-glycerophosphate, 2 mM dithiothreitol, 0.1 mM sodium vanadate, 10 mM MgCl2, 1 mM EGTA, 0.01% Brij35). Beads were then resuspended in 50μl of kinase buffer plus the indicated amounts of recombinant p105 protein and incubated at 4° C. for 30 min. […] The supernatant was removed, mixed with an equal volume of 2×sample buffer, Western blotted after 8%-acrylamide SDS-PAGE and probed with anti-phospho-MEK-½ antibody. Immunoprecipitated Myc-TPL-2 or Myc-TPL-2ΔC was eluted with Laemlli sample buffer from the remaining anti-Myc mAb beads and quantified by Western blotting.
Only a small fraction of over-expressed Myc-TPL-2 is associated with p105, presumably due to titration of endogenous p105 protein. The effect of p105 binding on Myc-TPL-2 MEK kinase activity was investigated by incubation of TPL-2 imnmunoprecipitates with recombinant p105498-969 protein prior to in vitro kinase assay. MEK phosphorylation was assayed by Western blotting with anti-phospho-MEK-½ antibody. Control experiments confirmed that p105498-969 protein bound to TPL-2 in vitro. […]

[2] = target: T2, TPL-2 C-terminus (TPL-2398-467 peptide) (Rattus norvegicus, UniProt Q63562); test: Surface plasmon resonance (BIAcore) binding to immobilized TPL-2 C-terminal peptide; details: biotinylated TPL-2398-467 on Streptavidin sensor surface, 25° C.
T2 construct: a synthetic peptide corresponding to the C-terminus of TPL-2 (residues 398-467); made in house; host or cells: chemical peptide synthesis
Description: Interaction between the TPL-2 C-terminus and recombinant p105 proteins was measured by surface plasmon resonance using the BIAcore system (BIAcore AB, Uppsala, Sweden; (Szabo, A., et al. (1995) Curr. Opin. Struct. biol. 5: 699-705)). The C-terminal 70 amino acids of TPL-2 (TPL-2398-467) were synthesised as a biotinylated peptide (conjugated to the equivalent of Cys398 of full length TPL-2) and immobilized on a Streptavidin-coated sensor surface (Sensorchip SA, BIAcore AB). Recombinant p105 proteins were then injected at different concentrations and resonance signals monitored. Dissociation at 25° C. was measured by flushing the TPL-2/p105 complexes with HBS-P buffer (10 MM HEPES-pH7.4, 150 mM NaCl, 0.005% (v/v) polysorbate 20; BIAcore AB). Data were evaluated using BIAevaluation software, version 3.0.2.
(5.3.b) In order to obtain corroborating evidence for the TPL-2 C-terminus binding site on p105, surface plasmon resonance experiments were carried out using the panel of recombinant p105 proteins including p105 1-969, p105 498-969, p105 498-806, p105 497-782 and p105 541-802.

T2 sequence (Q63562 398-467): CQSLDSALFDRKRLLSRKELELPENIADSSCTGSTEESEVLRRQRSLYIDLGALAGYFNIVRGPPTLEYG
T1 sequence (Q63562 whole entry): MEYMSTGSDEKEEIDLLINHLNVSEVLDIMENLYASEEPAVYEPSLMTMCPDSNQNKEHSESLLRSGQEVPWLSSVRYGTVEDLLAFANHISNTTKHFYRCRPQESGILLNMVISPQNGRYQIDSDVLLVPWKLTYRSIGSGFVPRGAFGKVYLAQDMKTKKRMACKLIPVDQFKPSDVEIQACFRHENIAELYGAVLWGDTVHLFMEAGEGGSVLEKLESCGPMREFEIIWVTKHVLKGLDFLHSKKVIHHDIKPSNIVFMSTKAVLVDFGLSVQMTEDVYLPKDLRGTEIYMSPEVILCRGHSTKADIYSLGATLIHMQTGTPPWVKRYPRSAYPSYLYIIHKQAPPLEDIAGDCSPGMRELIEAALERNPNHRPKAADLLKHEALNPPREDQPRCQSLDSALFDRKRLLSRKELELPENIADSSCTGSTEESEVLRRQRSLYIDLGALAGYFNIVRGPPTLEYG

| Molecule | effect on Myc-TPL-2 MEK kinase activity [1] | binding to the TPL-2 peptide (affinity constants) [2] |
| --- | --- | --- |
| B1 | did not affect | – |
| B2 | – | did not detectably bind |

From patent publication US20030219427A1, “TPL-2/COT kinase and methods of use” (priority 1998, published 2003)
